Measurements as given in publication PMC3627597.
Read-outs that look alike come from different tables or passages of the source.

T1: BAFF-R (B-cell activating factor receptor) (human, UniProt Q96RJ3 1-76)
T1 sequence: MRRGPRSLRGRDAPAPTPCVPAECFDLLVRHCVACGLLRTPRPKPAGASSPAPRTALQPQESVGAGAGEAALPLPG

B1: R-22 aptamer (structured_RNA)
RNA: GGGAGGACGAUGCGGAUCCUCCGAAGGUCGCGCCAACGUCACACAUUAAGCUUUUGUUCGUCUGCAGACGACUCGCCCGA
modifications: 2'-F U and C
B2: R-1-STAT3 27-mer OVH chimera (structured_RNA)
RNA 1: GGGAGGACGAUGCGGGAGGCUCAACAAUGAUAGAGCCCGCAAUGUUGAUAGUUGUGCCCAGUCUGCAGACGACUCGCCCGAUUUUUUUUGAGAACGGAAGCUGCAGAAAGAUACGA
RNA 2: GUAUCUUUCUGCAGCUUCCGUUCUC
modifications: 2'-F U and C in aptamer-sense strand
B3: R-1-STAT3 27-mer SWAP chimera (structured_RNA)
RNA 1: GGGAGGACGAUGCGGGAGGCUCAACAAUGAUAGAGCCCGCAAUGUUGAUAGUUGUGCCCAGUCUGCAGACGACUGCCCGAUUUUUUUUUCAGUCGUAUCUUUCUGCAGCUUCCGU
RNA 2: GGAAGCUGCAGAAAGAUACGACUGA
modifications: 2'-F U and C in aptamer-antisense strand; S7 3' ga are DNA
B4: R-14 aptamer (structured_RNA)
RNA: GGGAGGACGAUGCGGAUAACUAUUGUGCUAGAGGGCUUAUUUAUGUGAGCCGGUUGAUAGUUGCGCAGACGACUCGCCCGA
modifications: 2'-F U and C
B5: R-1 aptamer (structured_RNA)
RNA: GGGAGGACGAUGCGGGAGGCUCAACAAUGAUAGAGCCCGCAAUGUUGAUAGUUGUGCCCAGUCUGCAGACGACUCGCCCGA
modifications: 2'-F U and C

What was measured:
[1] = molecular target: T1, BAFF-R (B-cell activating factor …); test: filter binding
[2] = molecular target: T1, BAFF-R (B-cell activating factor …); test: EMSA
BCMA (TNFRSF17) = BCMA (TNFRSF17) (human, UniProt Q02223 1-54); test: EMSA
[3] = molecular target: T1, BAFF-R (B-cell activating factor …); test: EMSA; remark: listed apart in the source

BCMA (TNFRSF17), sequence (Q02223 1-54): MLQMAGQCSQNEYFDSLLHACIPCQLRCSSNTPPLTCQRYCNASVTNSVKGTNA

Row | Binder | binding signal [1] [% RNA retained] | Kd [2] [µM] | binding result (BCMA (TNFRSF17)) | Kd [3] [µM]
1 | B1 | 3.6 |  |  | 
2 | B2 |  | 0.035 |  | 
3 | B3 |  | 0.056 |  | 
4 | B4 | > 36 | ~0.096 |  | 
5 | B5 | > 36 | ~0.047 | no binding | 0.054
